Results: US20240076389A1 (NATIONAL RESEARCH COUNCIL OF CANADA, published 2024)

What was measured:
[1] = molecular target: T1, human AXL expressed on the cell surface of tumor cell lines (human, UniProt P30530 26-894); experiment: FACS on NCI-H292 cells, apparent Kd, human Fc format
T1 construct: whole, on cells; also called cell surface-expressed AXL; cell-based AXL
T1 sequence (looked up): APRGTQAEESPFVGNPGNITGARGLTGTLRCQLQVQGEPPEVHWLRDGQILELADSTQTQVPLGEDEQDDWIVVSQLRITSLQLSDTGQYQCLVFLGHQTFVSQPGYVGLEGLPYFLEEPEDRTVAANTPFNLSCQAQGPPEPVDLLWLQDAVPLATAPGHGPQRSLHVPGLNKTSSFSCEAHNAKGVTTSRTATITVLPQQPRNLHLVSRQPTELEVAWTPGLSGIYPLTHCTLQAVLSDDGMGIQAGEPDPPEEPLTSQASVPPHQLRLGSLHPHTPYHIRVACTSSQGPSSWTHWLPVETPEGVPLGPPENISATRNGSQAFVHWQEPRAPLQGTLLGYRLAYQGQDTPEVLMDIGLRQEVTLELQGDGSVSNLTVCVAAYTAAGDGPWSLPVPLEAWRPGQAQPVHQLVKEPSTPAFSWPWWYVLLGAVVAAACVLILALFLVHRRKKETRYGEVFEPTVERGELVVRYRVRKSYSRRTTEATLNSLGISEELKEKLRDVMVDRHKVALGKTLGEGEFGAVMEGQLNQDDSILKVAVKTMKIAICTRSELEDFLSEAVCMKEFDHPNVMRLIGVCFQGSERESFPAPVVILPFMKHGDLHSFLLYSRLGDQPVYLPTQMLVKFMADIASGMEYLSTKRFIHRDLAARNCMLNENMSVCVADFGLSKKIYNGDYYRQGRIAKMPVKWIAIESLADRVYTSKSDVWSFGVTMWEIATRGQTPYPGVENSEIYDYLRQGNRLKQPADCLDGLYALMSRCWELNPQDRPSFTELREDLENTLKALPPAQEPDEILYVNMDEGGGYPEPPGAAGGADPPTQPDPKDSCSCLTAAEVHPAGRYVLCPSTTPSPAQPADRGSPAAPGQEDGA
Procedure: (§1) FACS binding assay. Adherent cells were dissociated with non-enzymatic Sigma Cell Dissociation Solution (Cat. No. C5789). Cells suspensions were added to polypropylene, V-bottom 96-well plates and incubated for 2 hours on ice with primary antibodies at concentrations ranging from 100 nM to 0.001 nM or at a single dose of 100 nM (for the non-specific control). After incubation and washes, cells were incubated with fluorescently labeled secondary antibody (Alexa Fluor® 488 anti-human IgG from Jackson Cat. No 709-546-098) for 1 hour on ice, then washed. Cell viability was determined using Fixable viability dye 450 (20 min on ice). Stained cells were fixed in 1% formaldehyde at 4° C. and stored at 4° C. until acquisition which was performed the next day.
(§2) Binding of recombinant chimeric Abs to three cell lines was assessed by FACS as described above. The apparent Bmax and Kd determination is shown below in Table 14.

[2] = molecular target: T1, human AXL expressed on the cell surface …; experiment: FACS on SKOV3 cells, apparent Kd
Procedure: as §1, §2

[3] = molecular target: T2, recombinant human AXL extracellular domain, C-terminally His8-tagged (rhAXL-ECD) (human, UniProt P30530 26-451); experiment: SPR Biacore T200, mAb captured on anti-Fc, AXL ECD flowed, multi-cycle kinetics
T2 construct: Made in CHO cells; also called (rh)AXL-ECD His8; human AXL ECD
T2 sequence: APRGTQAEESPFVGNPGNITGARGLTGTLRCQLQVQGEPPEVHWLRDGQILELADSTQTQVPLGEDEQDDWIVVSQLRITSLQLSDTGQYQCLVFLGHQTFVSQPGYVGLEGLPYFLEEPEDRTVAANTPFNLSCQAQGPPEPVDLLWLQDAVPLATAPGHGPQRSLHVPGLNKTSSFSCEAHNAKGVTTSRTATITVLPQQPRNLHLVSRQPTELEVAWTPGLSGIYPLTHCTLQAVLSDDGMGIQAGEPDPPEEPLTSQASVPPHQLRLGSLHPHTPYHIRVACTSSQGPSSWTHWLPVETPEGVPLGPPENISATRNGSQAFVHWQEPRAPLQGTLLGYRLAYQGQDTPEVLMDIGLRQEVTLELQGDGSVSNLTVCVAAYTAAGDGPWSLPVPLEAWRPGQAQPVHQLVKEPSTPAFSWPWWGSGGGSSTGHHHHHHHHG
Procedure: (§3) Surface plasmon resonance. For murine mAbs, binding to human and cynomolgus AXL ECD was assessed using a Biacore T200 instrument. Briefly, either anti-mouse or anti-human Fc antibody was immobilized on a research-grade CM5 series S sensor chip using amine coupling in acetate buffer. Murine or recombinant chimeric murine-human mAbs (mouse VH/VL; human constant regions) were captured, then recombinant human or cyno AXL ECD was flowed over the surface at different concentration ranges (0.1-500 nM) depending on the antibody. The running buffer was PBS/Tween-20 and the flow rate 100 uL/min. All binding studies were performed at 25° C. Surfaces were regenerated using 10 mM glycine, pH 1.5.

[4] = molecular target: T3, huMER-ECD displayed on yeast (human, UniProt Q12866 21-505); experiment: yeast surface display ELISA, non-denatured yeast, goat anti-human F(ab')2-HRP
T3 construct: extracellular domain
T3 sequence (looked up): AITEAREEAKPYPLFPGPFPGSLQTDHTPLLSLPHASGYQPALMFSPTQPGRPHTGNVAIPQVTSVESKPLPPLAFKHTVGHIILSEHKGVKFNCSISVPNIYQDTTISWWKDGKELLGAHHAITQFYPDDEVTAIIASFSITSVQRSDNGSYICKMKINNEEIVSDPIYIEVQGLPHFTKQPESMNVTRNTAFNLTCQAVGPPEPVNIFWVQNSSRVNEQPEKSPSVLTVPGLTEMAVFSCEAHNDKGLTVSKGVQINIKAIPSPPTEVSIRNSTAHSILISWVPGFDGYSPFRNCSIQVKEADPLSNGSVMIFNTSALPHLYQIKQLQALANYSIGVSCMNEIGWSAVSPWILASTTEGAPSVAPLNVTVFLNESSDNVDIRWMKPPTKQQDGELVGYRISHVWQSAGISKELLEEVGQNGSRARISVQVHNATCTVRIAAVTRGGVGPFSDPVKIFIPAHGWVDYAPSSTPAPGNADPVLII

[5] = molecular target: T2, recombinant human AXL extracellular …; experiment: SPR Biacore T200, mAb captured on anti-Fc, AXL ECD flowed (footnote b printed in a row of footnote a)
Procedure: as §3

[6] = molecular target: T1, human AXL expressed on the cell surface …; experiment: FACS on NCI-H292 cells, apparent Kd
Procedure: as §1, §2

B1: NRC-sdAb001-Fc (VHH-human IgG1 Fc fusion) (Fc fusion)
chain: QVKLEESGGGLVQAGGSLRLSCTASASISSFDIMGWYRQAPGKQRELVAAITTLDIANYRDSVKGRFTISRDNAKNTVYLQMDSLKPEDTARYHCAAFQSDQNYWGQGTQVTVSS
notes: VHH fused N-terminally to human IgG1 Fc, made in HEK293 cells; also called NRC-sdAb0001-Fc; NRC-sdAb001-hIgG1; not shown: human IgG1 Fc
- Kd [1]: 0.105 nM

B2: hFC-F107-10G1 (antibody, human IgG1, kappa, V domains shown)
VH: EVNLVESGGGVVKPGASLKLSCEASGFTFSNYGMSWVRQTSDKRLEWVASISGGGGRTYYLDNVKGRFIISRENAKNTLYLQMSSLKSEDTALFYCARGARASYFAMDYWGQGSSVTVSS
VL: VIVMTQSHKFMSTSVGDRVSITCKASQDVTTAVAWYQQKPGQSPKLLIYWASTRHTGVPDRFTGSGSGTDYSLTISNVQTEDLAFYYCQQHFTTPLTFGAGTKLELKR
notes: Chimeric mAb, human IgG1 / human kappa constant regions; also called mAb F107-10G1
- Kd [2]: 0.0608 nM
- Kd [3]: 0.4 nM
- koff [3]: 0.00056 s⁻¹
- kon [3]: 1.2e+06 M⁻¹ s⁻¹
- yeast ELISA signal normalized to myc expression level [4]: -0.02
- koff [5]: 0.00059 s⁻¹
- Kd [6]: 0.0708 nM
